Test results as given in FireProtDB (doi:10.1021/acs.biochem.7b00571).

Conditions: Nicotiana tabacum; pH 7.2; 4 °C; Urea; Fluorescence; BES; reversible: yes; whole UniProt chain shown

B1: Salicylic acid-binding protein 2 wild type, Q6RYA0 (protein)
chain: MKEGKHFVLVHGACHGGWSWYKLKPLLEAAGHKVTALDLAASGTDLRKIEELRTLYDYTLPLMELMESLSADEKVILVGHSLGGMNLGLAMEKYPQKIYAAVFLAAFMPDSVHNSSFVLEQYNERTPAENWLDTQFLPYGSPEEPLTSMFFGPKFLAHKLYQLCSPEDLALASSLVRPSSLFMEDLSKAKYFTDERFGSVKRVYIVCTEDKGIPEEFQRWQIDNIGVTEAIEIKGADHMAMLCEPQKLCASLLEIAHKYN
- denaturant midpoint (higher = more stable): 2.2 M
